Measurements reported in US20180251563A1 (SUBDOMAIN, published 2018).
Where a chain is given by its changes, count along the chain named.

Key:
[1] = molecular target: T1, CTLA4-Fc (UniProt P16410 36-161, limits assumed); assay: phage ELISA, target-Fc against non-specific control
T1 construct: purified recombinant target-Fc protein; not shown: Fc
Protocol: (§1) Selections were also performed using F1, F2, F3, C1 & C2 trinucleotide phosphoramidite libraries. In most cases, libraries were pooled prior to use in selection. By combining equal volumes of the individual libraries, Pool F (libraries F1, F2 and F3) and Pool C (libraries C1 and C2) were generated. These libraries were used in selections for DBDpp binders to 4-1BB/CD137 as well as a larger panel of purified recombinant “target”-Fc proteins, including CD47, CTLA4, DR5, KIR, LAG3, OX40, PD1, PD-L1 and TIM3. (Many of these targets are considered immuno-regulatory factors (Pardoll et al., Nat. Rev. Cancer 12:252-264 (2012)). After incubation of the target with the pools of DBDpp phage libraries, bound phage-target complexes were captured and separated from unbound phage with protein A beads (target proteins were Fc fusions). After three rounds of selection, rescued phage clones were screened by ELISA for binding to the selected target.
(§2) For each target, approximately 90 DBDpp phage clones were screened by ELISA for binding to the target protein and as well as a non-specific control (e.g., IgG1-Fc). […] In some instances, for the ELISA screening plate in which the majority of DBDpp clones were positive, the entire plate was sequenced.

[2] = molecular target: T2, PD-L1-Fc (UniProt Q9NZQ7 19-238); assay: ELISA, purified FLAG-tagged protein on PD-L1-Fc coated wells
T2 construct: purified recombinant target-Fc protein; also called FC-PD-L1; not shown: Fc
T2 sequence (Q9NZQ7 19-238 limits assumed): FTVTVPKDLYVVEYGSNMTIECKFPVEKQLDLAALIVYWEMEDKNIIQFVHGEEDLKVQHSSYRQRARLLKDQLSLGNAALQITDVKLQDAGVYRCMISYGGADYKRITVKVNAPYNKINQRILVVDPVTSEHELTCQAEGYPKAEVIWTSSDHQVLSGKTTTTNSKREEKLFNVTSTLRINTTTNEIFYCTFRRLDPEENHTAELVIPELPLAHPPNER

[3] = molecular target: T3, recombinant, biotinylated, Human 4-1BB/TNFRSF9/CD137-Fc (human, UniProt Q07011 24-186, biotinylated (F2NNK selection)); assay: phage ELISA, target-Fc against non-specific control (IgG Fc)
T3 construct: also called 4-1BB/CD137; not shown: Fc
T3 sequence (Q07011 24-186 limits assumed): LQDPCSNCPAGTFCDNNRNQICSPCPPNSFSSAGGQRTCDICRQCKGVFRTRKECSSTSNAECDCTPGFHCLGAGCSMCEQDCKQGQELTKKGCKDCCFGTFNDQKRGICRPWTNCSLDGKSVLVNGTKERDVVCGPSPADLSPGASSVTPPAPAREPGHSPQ
Description: The F2NNK DBD library was used in five rounds of selection against recombinant, biotinylated, Human 4-1BB/TNFRSF9/CD137-Fc.

[4] = molecular target: T4, PD1-Fc (UniProt Q15116 25-167); assay: phage ELISA, target-Fc against non-specific control
T4 construct: purified recombinant target-Fc protein; not shown: Fc
T4 sequence (Q15116 25-167 limits assumed): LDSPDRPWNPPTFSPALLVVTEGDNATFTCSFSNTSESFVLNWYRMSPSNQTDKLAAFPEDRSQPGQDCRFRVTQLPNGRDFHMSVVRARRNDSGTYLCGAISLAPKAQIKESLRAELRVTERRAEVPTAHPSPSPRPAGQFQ
Protocol: as §1, §2

[5] = molecular target: T5, Fc-fusion protein comprising the extracellular domain of CD123 fused to human IgG1 Fc (human, UniProt P26951 19-305); assay: flow cytometry, transiently transfected 293T cells incubated with CD123-Fc, detection with PE anti-human IgG; CAR expression by anti-FLAG
T5 construct: also called Fc-CD123; not shown: human IgG1 Fc
T5 sequence: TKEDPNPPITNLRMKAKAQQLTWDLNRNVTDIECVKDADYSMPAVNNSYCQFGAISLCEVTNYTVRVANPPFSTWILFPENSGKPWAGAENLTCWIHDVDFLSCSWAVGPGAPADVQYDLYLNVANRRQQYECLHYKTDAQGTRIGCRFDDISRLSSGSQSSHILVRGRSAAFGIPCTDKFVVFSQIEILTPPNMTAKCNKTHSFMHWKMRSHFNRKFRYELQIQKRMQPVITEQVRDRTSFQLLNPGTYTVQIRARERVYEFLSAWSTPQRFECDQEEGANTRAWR
Protocol: 293T cells were transiently transfected with pcDNA3 expression vectors encoding DBDpp containing CARs using (see, e.g., FIG. 5B) Lipofectamine 3000 (Life Technologies). After 24 hours, cells were collected using CellStripper™. Cells were assessed for CAR expression using a fluorescent-labeled anti-FLAG antibody. DBDpp containing CARs binding to CD123 was measured by incubating cells with a Fc-fusion protein comprising the extracellular domain of CD123 fused to human IgG1 Fc in cell culture media at 37° for 30 minutes, washing, and then detection with a PE anti-human IgG antibody. Both CD123 binding and CAR expression (FLAG Tag) were assayed by flow cytometry. Data are shown in FIG. 17, and each data point indicates the average FLAG expression and CD123-binding for each of the DBDpp-CARs from multiple experiments.

[6] = molecular target: human PD-L1 (human, UniProt Q9NZQ7 19-238, limits assumed); assay: ELISA, FLAG-tagged pb04 on immobilised Human PDL1-Fc
human PD-L1, sequence (Q9NZQ7 19-238 limits assumed): as the sequence (Q9NZQ7 19-238 limits assumed) above
Protocol: (§3) FIG. 16A establishes that a soluble DBDpp selected for binding to human PD-L1 (pb04 in this nonlimiting embodiment), can also bind PD-L1 of cynomolgus (Macaca fascicularis), as assessed by ELISA. Human PD-L1 or cynomolgus PD-L1 was immobilized in separate wells of an ELISA plate. Soluble DBDpp (FLAG tagged) directed against PD-L1 was incubated in the respective plates to assess the degree of binding with PD-L1 from each species. As shown, pb04 DBDpp binds to both human and cynomolgus PD-L1.

[7] = molecular target: T6, cynomolgus PD-L1 (cynomolgus (Macaca fascicularis), UniProt G7PSE7 19-238); assay: ELISA, FLAG-tagged pb04 on immobilised Cynomolgus PDL1-Fc
T6 construct: also called PD-L1 of cynomolgus (Macaca fascicularis)
T6 sequence (G7PSE7 entry or part of it): as the sequence (Q9NZQ7 19-238 limits assumed) above, with A33T, A34S, S62N, R68Q, Q82R, F173L, T185A, T192I, H215L counted along it
Protocol: as §3

[8] = molecular target: T2, PD-L1-Fc; assay: ELISA on PD-L1-Fc, in vitro translated DBDpp-6xHIS heated 2 minutes at 25-100 C and serially diluted, detection with anti-6xHIS-HRP
Protocol: DBDpp-6×HIS fusions (pb04 and pb06) and scFv-6×HIS fusions were expressed through in vitro transcription and translation reactions (NEB, PureExpress). Samples were diluted in ELISA blocking buffer (Thermo Fisher) 30 fold. Individual samples were subsequently incubated at either 25° C., 40° C., 55° C., 70° C. or 100° C. for 2 minutes and then rapidly returned to room temperature. The temperature increase, followed by rapid cooling can cause denaturation of the protein or other breakdown of the three-dimensional structure of proteins that reduce target interaction and/or binding. The ability of proteins to bind with a ligand, such as a target tumor antigen, after being exposed to denaturing conditions indicates either enhanced stability during exposure to elevated temperature or an ability to re-fold and maintain function after exposure. […]
The heat-exposed samples were serially diluted in ELISA buffer and measured for binding to PD-L1-Fc in ELISA. Bound proteins were detected with HRP-conjugated rabbit anti-6×HIS polyclonal antibody (Abcam). […] Since this particular scFv is not configured to bind PD-L1, this function as a negative control, and as expected, no binding is detected for any of the DR5 scFv, regardless of the temperatures they were exposed to. […]

[9] = molecular target: T7, TIM3-Fc (UniProt Q8TDQ0 22-200); assay: phage ELISA, target-Fc against non-specific control
T7 construct: purified recombinant target-Fc protein; not shown: Fc
Protocol: as §1, §2

T1 sequence (P16410 36-161 limits assumed): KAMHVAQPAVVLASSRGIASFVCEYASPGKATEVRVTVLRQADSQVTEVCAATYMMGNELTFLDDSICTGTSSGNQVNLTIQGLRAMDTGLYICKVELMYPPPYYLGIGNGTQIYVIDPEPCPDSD

B1: SEQ ID NO 25 (designed binder)
chain: MGSWHEFHDRLQAIHERLYALGGSEAELAAFEKEIAAFESELQAYKGKGNPEVESLRIAAAHIRQVLQAYRHN
ELISA ratio (target to background) [1]: 2.95 ratio

B2: FLAG-α3D (other)
chain: MGSWAEFKQRLAAIKTRLQALGGSEAELAAFEKEIAAFESELQAYKGKGNPEVEALRKEAAAIRDELQAYRHN
notes: expressed and purified from E. coli; also called N-terminal FLAG tag fusion of a3D; alpha3D; not shown: N-terminal FLAG tag
binding result [2]: no binding (tested: about 1000 nM)

B3: bb10 (designed binder)
chain: B2 chain with Q19E, E32L, K33G, A36W, S40M, Q43A, R57G, K58R, D65M
notes: F2NNK library clone
ELISA ratio (target to background) [3]: 5.27 ratio

B4: SEQ ID NO 47 (designed binder)
chain: MGSWVMFKWLLADIKSHLEALGGSEAELAFFEGFIAAFETHLQVYKGKGNPEVEALRKEAAAIRDELQAYRHN
ELISA ratio (target to background) [4]: 8.13 ratio

B5: SEQ ID NO 48 (designed binder)
chain: MGSWYAFKDYLADIKGWLEALGGSEAELAFFEIFIARFELELQAYKGKGNPEVEALRKEAAAIRDELQAYRHN
ELISA ratio (target to background) [4]: 3.29 ratio

B6: cg06 DBDpp-CAR (other)
chain: MGSWDEFGRRLYAIEWRLYALGGSEAELAAFEKEIAAFESELQAYKGKGNPEVEKLREIAAVIRSNLQAYRHN
notes: expressed on Jurkat NFAT reporter cells; not shown: rest of the CAR (FLAG tag, linker, transmembrane and intracellular domains) not specified
binding result [5]: binds

B7: FLAG-pb04 (designed binder)
chain: MGSWYEFTVRLEAIHERLKALGGSEAELAAFEKEIAAFESELQAYKGKGNPEVEILRDDAAFIRRFLQAYRHN
notes: expressed and purified from E. coli; also called N-terminal FLAG tag fusion of pb04; soluble DBDpp (FLAG tagged) directed against PD-L1; not shown: N-terminal FLAG tag
EC50 [6]: 31.4 nM | EC50 [7]: 42.1 nM

B8: pb06 DBDpp-6xHIS fusion (designed binder)
chain: B7 chain with T8D, V9D, E12N, E16D, K19Q, I55D
notes: made by in vitro transcription and translation; not shown: 6xHIS tag
binding result [8]: binds

B9: SEQ ID NO 45 (designed binder)
chain: MGSWVVFKVDLATIKYILEALGGSEAELAEFEGEIAGFEYSLQFYKGKGNPEVEALRKEAAAIRDELQAYRHN
ELISA ratio (target to background) [9]: 5.79 ratio

B10: SEQ ID NO 46 (designed binder)
chain: MGSWTIFKEWLAFIKTDLEALGGSEAELAFFEGWIASFEMELQKYKGKGNPEVEALRKEAAAIRDELQAYRHN
ELISA ratio (target to background) [4]: 17.1 ratio
